This is an account of results in US20050095231A1.

In this experiment the target is artificial receptor (AR) on 293/6H cells: anti-5His single chain antibody fused with the transmembrane domain of the PDGF receptor. Nature of the experiment: cell-based or functional assay.

Turning to “fiber-fibritin-6His chimera (FF/6H), as carried by Ad5LucFF/6H virions”, the Ad5LucFF/6H-expressed luciferase activities in 293/6H cells expressing AR compared to parental 293 cells (orders of magnitude) came out at 2.
